We go through 1 molecule from patent EP3277718B1 (Baxalta GmbH, dated 2021).

Assay [1] has as its target T1, human MIF (macrophage migration inhibitory factor), recombinant (human, UniProt P14174 2-115). Description: cell-based or functional assay.
Assay [2] concerns the target T1, human MIF (macrophage migration …). Description: SPR, Biacore 3000, RAM9 amine-coupled to CM5 chip, MIF injected at 40-480 nM, 1:1 Langmuir fit with mass transfer.

A word on the Kd: it is a measure of binding affinity in units of concentration.

T1 sequence (P14174 2-115 limits assumed): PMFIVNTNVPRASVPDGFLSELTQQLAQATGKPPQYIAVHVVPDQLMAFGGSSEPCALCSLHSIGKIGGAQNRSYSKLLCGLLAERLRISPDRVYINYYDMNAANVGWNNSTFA

B1: RAM9 (antibody, human IgG1, kappa, V domains shown)
VH: EVQLLESGGGLVQPGGSLRLSCAASGFTFSIYSMNWVRQAPGKGLEWVSSIGSSGGTTYYADSVKGRFTISRDNSKNTLYLQMNSLRAEDTAVYYCAGSQWLYGMDVWGQGTTVTVSS
VL: DIQMTQSPSSLSASVGDRVTITCRSSQRIMTYLNWYQQKPGKAPKLLIFVASHSQSGVPSRFRGSGSETDFTLTISGLQPEDSATYYCQQSFWTPLTFGGGTKVEIKR
notes: also deposited as plasmids DSM 25860 (hc) and DSM 25859 (lc); also called anti-MIF antibody RAM9; anti-oxMIF antibody
For the molecule B1, the “Potency (IC 50); inhibition of random migration of human U937 cells, Transwell chemokinesis assay” value in assay [1] came out at 1 nM. The dissociation constant Kd in assay [2] was determined as 1.7 nM.
